{"source": "patent US10029000B2", "about": "“Uses of IL-12 in hematopoiesis” (University of Southern California, priority 2003, dated 2018)", "molecules": {"B1": {"name": "IL-12: Recombinant murine interleukin 12, heterodimeric cytokine (p35+p40), purchased from R&D Systems or PeproTech (protein, UniProt P43431 23-215; P43432 23-335, looked up)", "Interleukin-12 subunit alpha": "RVIPVSGPARCLSQSRNLLKTTDDMVKTAREKLKHYSCTAEDIDHEDITRDQTSTLKTCLPLELHKNESCLATRETSSTTRGSCLPPQKTSLMMTLCLGSIYEDLKMYQTEFQAINAALQNHNHQQIILDKGMLVAIDELMQSLNHNGETLRQKPPVGEADPYRVKMKLCILLHAFSTRVVTINRVMGYLSSA", "Interleukin-12 subunit beta": "MWELEKDVYVVEVDWTPDAPGETVNLTCDTPEEDDITWTSDQRHGVIGSGKTLTITVKEFLDAGQYTCHKGGETLSHSHLLLHKKENGIWSTEILKNFKNKTFLKCEAPNYSGRFTCSWLVQRNMDLKFNIKSSSSSPDSRAVTCGMASLSAEKVTLDQRDYEKYSVSCQEDVTCPTAEETLPIELALEARQQNKYENYSTSFFIRDIIKPDPPKNLQMKPLKNSQVEVSWEYPDSWSTPHSYFSLKFFVRIQRKKEKMKETEEGCNQKGAFLVEKTSTEVQCKGGNVCVQAQDRYYNSSCSKWACVPCRVRS"}}, "key": {"lethally irradiated mice": {"system": "lethally irradiated mice", "experiment": "Radioprotection assay: survival of mice after total body lethal irradiation", "format": "in vivo, mice (C57BL/6J)", "conditions": "for animals with long-term survival (more than one year): 100 ng/mouse (5 ug/Kg)", "protocol": "Mice received recombinant murine IL-12 (100 ng/mouse (which is about 5 ug/kg on average), intravenous injection) before (24 hours) or after (1 hour) lethal dose radiation (1000 rad). Mice in control group received equal volume of PBS buffer. Survival rate were analyzed by Kaplan-Meier method and p value was calculated using Log Rank Test.\nTo determine the minimum effective radioprotective dose of IL-12, different dose of IL-112 were administered to lethally irradiated animals before (24 hours before) or post (within one hour) lethal dose ionizing radiation.\nIL-12 was administrated to mice at different doses 24 hours before radiation to determine if there is a dose dependent relationship between the concentration of IL-12 administration and survival from lethal irradiation.\nTo further explore the relationship of IL-12 hematopoietic rescue effect as it may relate to the time of administration, IL-12 was administrated to lethally irradiated animals at different time before and after the radiation. The following time points were tested: −48, −36, −24, and −12 hours before radiation, or +1, +12, +24, and +36 hours post radiation.\nA study was conducted to determine if the radioprotective effect of IL-12 administration is specific and INF- ? independent. […] Also, an assessment was made to determine if there was a synergistic effect between GM-CSF and IL-12.\nMice were provided with acid water for one week before the radioprotection assay. Cytokines, diluted in phosphate buffered saline (PBS), pH 7.4, were intravenously injected into mice before or after total body lethal irradiation (TBI) at the specified times. Control group mice were injected with PBS buffer. For TBI, mice were either exposed twice to ionizing irradiation ( ? -ray from Cesium 137) at 500 rad dose with a 3 hour interval, or one time at a dose of 1000 rad in a Gammacell 40 machine from Atomic Energy of Canada LTD (Kanafa, Ontario, Canada). The ? -ray exposure rate is 1 Gy/min. […] After irradiation, mice were given water containing antibiotics. For the survival curve, the Kaplan-Meier method was used. Each experiment was repeated three or more times."}, "bone marrow": {"system": "bone marrow", "experiment": "Bone marrow histology (H&E) after lethal dose radiation", "format": "in vivo, mice", "conditions": "5 ug/kg", "protocol": "At different time post IL-12 treatment (5 ug/kg) and lethal dose radiation (1, 12 and 14 days), femurs were isolated, fixed in 10% formalin, decalcified and processed for paraffin section and for Hematoxylin & Eosin staining. FIG. 2A: 1 day post radiation; FIG. 2B: 12 days post radiation; FIG. 2C: 14 days post radiation. […] (200× magnification)\n(§1) To determine if IL-112 sensitizes intestinal tract to ionizing radiation, two different doses of IL-12 and radiation were used in radioprotection assay, namely 5 ug/kg and 50 ug/kg of IL-12 and two different doses of radiation were also used. Subsequent to the administration of IL-12 and radiation, both bone marrow and the small intestine were removed from mice who received either 5 ug/kg or 50 ug/kg of IL-12 and a lethal dose radiation for histology study. The lethal doses were either 1000 rad or 1600 rad.\n(§2) Mice were treated with IL-12 (100 ng/mouse) or PBS 24 hours before receiving lethal irradiation. At different days after lethal irradiation, femurs, spleens and small intestines were removed and fixed in 10% formalin buffer for 24 hours. Subsequently, bone marrow was decalcified in Rapid Decalcifier for about 30 minutes. Samples and tissues then were embedded in TissuePrep 2 paraffin wax for micro-section at 5 μm for routine Hematoxylin and Eosin staining. Some small intestines were treated with PAS (Periodic Acid Schiff) staining."}, "small intestine": {"system": "small intestine", "experiment": "Small intestine histology after lethal dose radiation", "format": "in vivo, mice", "conditions": "5 ug/kg, 1000 rad or 1600 rad (10 and 16 Gy), 4 days post radiation", "protocol": "4 days post radiation, small intestine were removed, fixed for PAS staining for mice received 10 Gy (Periodic Acid Schiff), H&E staining for mice received 16 Gy. […] There is no obvious histological damage in mice who received 10 Gy radiation. (200× magnification)\nas §1, §2"}, "bone marrow cells": {"system": "bone marrow cells", "experiment": "BrdU incorporation assay", "format": "in vivo, mice", "conditions": "24 hours post IL-12 administration (10 ng/mouse); control 8%", "protocol": "It is believed that cells at S phase are more resistant to radiation. Both Brd-U incoperation and cell cycling analysis were performed to determine if IL-12 can stimulate bone marrow cell proliferation. In IL-12 treated mice, there are more bone marrow cells in S phase compared with control animals (12% vs 10%, p<0.05). Furthermore, there are more BrdU positive cells in IL-12 treated bone marrow compared with control animals (17% vs 8%, p<0.05).\n24 hours post IL-12 administration (10 ng/mouse), bone marrow cells were isolated for BrdU incooperation assay (FIG. 7A).\nFor the BrdU assay, IL-12 (10 ng/mouse) or PBS was intravenously injected into mice. 21 hours after injection, mice were i.p. injected with 5-Bromo-2′-deoxyuridine (BrdU from Sigma) at 50 mg/kg dosage. 3 hours after BrdU injection, mice were sacrificed and whole bone marrow cells were isolated from femurs and treated with lysis buffer to destroy red blood cells. Bone marrow cells were dispersed on a slide by cytospin for the proliferation assay using BrdU immunohistochemistry system kit purchased from Oncogene Research Products (Boston, Mass.)"}, "[1]": {"conditions": "cytokine given 1 hour post lethal dose radiation"}}, "note": "Entries after “also recorded” stand apart in the source; their conditions may differ."}
{"molecule": "B1", "values": [{"measurement": "animals with long-term survival (more than one year)", "setting": "lethally irradiated mice; 24 hours before lethal radiation", "value": 95, "unit": "%"}, {"measurement": "animals with long-term survival (more than one year)", "setting": "lethally irradiated mice; post lethal radiation", "value": 75, "unit": "%"}, {"measurement": "survival difference versus control (Kaplan-Meier, Log Rank Test)", "setting": "lethally irradiated mice; 100 ng/mouse i.v., 24 hours before or 1 hour after 1000 rad, p<0.001", "value": "statistically significant; also recorded: significant better survival"}, {"measurement": "Survives (30 days)", "setting": "lethally irradiated mice; IL-12 dose 5 ng/mouse, 24 hours before radiation, 5 mice", "value": 0}, {"measurement": "Survival rate (%)", "setting": "lethally irradiated mice; IL-12 dose 5 ng/mouse, 24 hours before radiation, 30 days", "value": 0, "unit": "%"}, {"measurement": "Survives (30 days)", "setting": "lethally irradiated mice; IL-12 dose 10 ng/mouse, 24 hours before radiation, 5 mice", "value": 0}, {"measurement": "Survival rate (%)", "setting": "lethally irradiated mice; IL-12 dose 10 ng/mouse, 24 hours before radiation, 30 days", "value": 0, "unit": "%"}, {"measurement": "Survives (30 days)", "setting": "lethally irradiated mice; IL-12 dose 25 ng/mouse, 24 hours before radiation, 5 mice", "value": 2}, {"measurement": "Survival rate (%)", "setting": "lethally irradiated mice; IL-12 dose 25 ng/mouse, 24 hours before radiation, 30 days", "value": 40, "unit": "%"}, {"measurement": "Survives (30 days)", "setting": "lethally irradiated mice; IL-12 dose 50 ng/mouse, 24 hours before radiation, 5 mice", "value": 3}, {"measurement": "Survival rate (%)", "setting": "lethally irradiated mice; IL-12 dose 50 ng/mouse, 24 hours before radiation, 30 days", "value": 60, "unit": "%"}, {"measurement": "Survives (30 days)", "setting": "lethally irradiated mice; IL-12 dose 100 ng/mouse, 24 hours before radiation, 5 mice", "value": 4}, {"measurement": "Survival rate (%)", "setting": "lethally irradiated mice; IL-12 dose 100 ng/mouse, 24 hours before radiation, 30 days", "value": 80, "unit": "%"}, {"measurement": "Survives (30 days)", "setting": "lethally irradiated mice; IL-12 dose 200 ng/mouse, 24 hours before radiation, 5 mice", "value": 3}, {"measurement": "Survival rate (%)", "setting": "lethally irradiated mice; IL-12 dose 200 ng/mouse, 24 hours before radiation, 30 days", "value": 60, "unit": "%"}, {"measurement": "Survival rate (%)", "setting": "lethally irradiated mice; [1]", "value": 80, "unit": "%"}, {"measurement": "radioprotective effect", "setting": "lethally irradiated mice; [1]", "value": "only cytokine tested that can protect mice from lethal dose radiation"}, {"measurement": "Survives", "setting": "lethally irradiated mice; cytokine given 1 hour post lethal dose radiation, 4-5 mice per group", "value": 4}, {"measurement": "survival at higher dose", "setting": "lethally irradiated mice; higher dose (up to 50 ug/kg) compared with 5 ug/kg", "value": "did not yield greater survival"}, {"measurement": "Survival rate (%)", "setting": "lethally irradiated mice; injection 1 hr after lethal irradiation", "value": 80, "unit": "%"}, {"measurement": "Survives", "setting": "lethally irradiated mice; injection 1 hr after lethal irradiation, 5 mice", "value": 4}, {"measurement": "Survival rate (%)", "setting": "lethally irradiated mice; injection 12 hrs after lethal irradiation", "value": 0, "unit": "%"}, {"measurement": "Survives", "setting": "lethally irradiated mice; injection 12 hrs after lethal irradiation, 5 mice", "value": 0}, {"measurement": "Survival rate (%)", "setting": "lethally irradiated mice; injection 12 hrs before lethal irradiation", "value": 20, "unit": "%"}, {"measurement": "Survives", "setting": "lethally irradiated mice; injection 12 hrs before lethal irradiation, 10 mice", "value": 2}, {"measurement": "Survival rate (%)", "setting": "lethally irradiated mice; injection 24 hrs after lethal irradiation", "value": 20, "unit": "%"}, {"measurement": "Survives", "setting": "lethally irradiated mice; injection 24 hrs after lethal irradiation, 10 mice", "value": 2}, {"measurement": "Survival rate (%)", "setting": "lethally irradiated mice; injection 24 hrs before lethal irradiation", "value": 100, "unit": "%"}, {"measurement": "Survives", "setting": "lethally irradiated mice; injection 24 hrs before lethal irradiation, 10 mice", "value": 10}, {"measurement": "Survival rate (%)", "setting": "lethally irradiated mice; injection 36 hrs after lethal irradiation", "value": 0, "unit": "%"}, {"measurement": "Survives", "setting": "lethally irradiated mice; injection 36 hrs after lethal irradiation, 5 mice", "value": 0}, {"measurement": "Survival rate (%)", "setting": "lethally irradiated mice; injection 36 hrs before lethal irradiation", "value": 0, "unit": "%"}, {"measurement": "Survives", "setting": "lethally irradiated mice; injection 36 hrs before lethal irradiation, 10 mice", "value": 0}, {"measurement": "Survival rate (%)", "setting": "lethally irradiated mice; injection 48 hrs before lethal irradiation", "value": 0, "unit": "%"}, {"measurement": "Survives", "setting": "lethally irradiated mice; injection 48 hrs before lethal irradiation, 10 mice", "value": 0}, {"measurement": "best administration time for radioprotection", "setting": "lethally irradiated mice; lethal dose radiation", "value": "24 hours before or 1 hour post radiation"}, {"measurement": "optimal radioprotective dose (best survival rate)", "setting": "lethally irradiated mice; mice, lethal dose radiation", "value": 5, "unit": "µg/kg"}, {"measurement": "bone marrow cellularity versus control", "setting": "bone marrow; day 1 post lethal radiation", "value": "significant higher cellularity"}, {"measurement": "bone marrow histological structure versus control", "setting": "bone marrow; day 7 and day 10 post radiation", "value": "no significant difference"}, {"measurement": "bone marrow colonies", "setting": "bone marrow; day 12 post radiation", "value": "colonies were observed"}, {"measurement": "bone marrow recovery", "setting": "bone marrow; day 14 post radiation", "value": "full recovery of bone marrow cellularity; also recorded: significant regeneration"}, {"measurement": "small intestine histology versus control", "setting": "small intestine", "value": "no significant histological difference"}, {"measurement": "BrdU positive cells in bone marrow", "setting": "bone marrow cells", "value": 17, "unit": "%"}]}
